{
  "source": "patent US20260139035A1",
  "about": "(published 2026)",
  "target": "RBD of the SARS-CoV-2 spike protein (Cayman Chemical kit #502050) (UniProt P0DTC2 319-541)",
  "data": [
    {"binder": "3-1 antibody (antibody, V domains shown) VH: EVQLVQSGAEVKKPGESLKISCKGSGYIFTNYWIGWVRQMPGKGLEWMGIINPRDSDTRYSPSFQGQVTISTDKSINTAYLQWSSLKASDTAMYYCARQQGGFGDLGAYNWFDPWGQGTLVTVSS VL: not shown", "values": [
      {"measurement": "IC50", "value": 0.031, "unit": "µg/mL"}
    ]},
    {"binder": "1-58 antibody (antibody, V domains shown) VH: QVQLVQSGAEVKKPGASVRVSCKASGYSFTASYMHWVRQAPGQGLEWMAIINPGDDNTSYAQKFQGRVTLTRDTSTTTVYMELRSLRSEDTAVYYCTRSTRDYVWGNYRYTPGYYLDYWGQGTLVTVSS VL: DIRMTQSPSSLSASVGDRVTITCRASQTISNYLNWYQQKPGKAPKLLIYAASSLQSGVPSRFSGSGSGTDFTLTISSLQPEDFATYYCQQGYITPITFGQGTRLEIK", "values": [
      {"measurement": "IC50", "value": 0.028, "unit": "µg/mL"}
    ]},
    {"binder": "1-44 antibody (antibody, V domains shown) VH: EVQLVESGGGVVQPGSSLRLSCAASGFTFRSHAMHWVRQAPGKGLEGVAVIWYDGSNKYYADSVKGRFTISRDNSKNTLYLQMNSLRAEDTAVYYCAREGIAVPGNGADAFDIWGQGTMVTVSS VL: DIQMTQSPSSLSASVGDRVTITCRASQSIGNFLNWYQQKPGKAPKLLIYAASSLQSGVPSRFSGSGSGTDFTLTISSLQPEDFATYYCQQTYSTPYTFGQGTKLEIK", "values": [
      {"measurement": "IC50", "value": 0.013, "unit": "µg/mL"}
    ]},
    {"binder": "4-66 antibody (antibody, V domains shown) VH: EVQLVESGGGLVQPGGSLRLSCAASGIIVSRNYMTWVRQAPGKGLEWVSVIYSGGTTYYADSVKGRFTTSRDDSKNTLYLQMNSLRGDDTAVYYCARDPPHRRGSYWGQGTLVTVSS VL: DILMTQSPSSLSASVGDRVTITCQASQDINKYLNWYQQKPGKAPKLLIYDASNLETGVPSRFSGSGSGTDFSFTISSLQPEDVATYYCQQSDNLPPTFGQGTNVEIK", "values": [
      {"measurement": "IC50", "value": 0.015, "unit": "µg/mL"}
    ]}
  ]
}
